The values that follow come from patent US20090111753A1, “Nogo-A Polypeptide Fragments, Variant Nogo Receptor-1 Polypeptides, and Uses Thereof” (Yale University, priority 2004, published 2009).

Sequences and labels used below:
B1: mouse NgR3 expressed on COS-7 cells (receptor, UniProt Q8K0S5 25-424, looked up)
chain: CPRDCVCYPAPMTVSCQAHNFAAIPEGIPEDSERIFLQNNRITFLQQGHFSPAMVTLWIYSNNITFIAPNTFEGFVHLEELDLGDNRQLRTLAPETFQGLVKLHALYLYKCGLSALPAGIFGGLHSLQYLYLQDNHIEYLQDDIFVDLVNLSHLFLHGNKLWSLGQGIFRGLVNLDRLLLHENQLQWVHHKAFHDLHRLTTLFLFNNSLTELQGDCLAPLVALEFLRLNGNAWDCGCRARSLWEWLRRFRGSSSAVPCATPELRQGQDLKLLRVEDFRNCTGPVSPHQIKSHTLTTSDRAARKEHHPSHGASRDKGHPHGHPPGSRSGYKKAGKNCTSHRNRNQISKVSSGKELTELQDYAPDYQHKFSFDIMPTARPKRKGKCARRTPIRAPSGVQQAS
notes: whole, on cells; tagged (anti-Myc or anti-His detection); tag not specified

Assay [1] deals with T1, AP-fused Amino-Nogo fragment A (a.a. 181-864) (human, UniProt Q9NQC3 181-864).
T1 construct: AP put first by the name; also called AmNg A; AP-AmNgA; not shown: alkaline phosphatase (AP), vector pcAP6
T1 sequence: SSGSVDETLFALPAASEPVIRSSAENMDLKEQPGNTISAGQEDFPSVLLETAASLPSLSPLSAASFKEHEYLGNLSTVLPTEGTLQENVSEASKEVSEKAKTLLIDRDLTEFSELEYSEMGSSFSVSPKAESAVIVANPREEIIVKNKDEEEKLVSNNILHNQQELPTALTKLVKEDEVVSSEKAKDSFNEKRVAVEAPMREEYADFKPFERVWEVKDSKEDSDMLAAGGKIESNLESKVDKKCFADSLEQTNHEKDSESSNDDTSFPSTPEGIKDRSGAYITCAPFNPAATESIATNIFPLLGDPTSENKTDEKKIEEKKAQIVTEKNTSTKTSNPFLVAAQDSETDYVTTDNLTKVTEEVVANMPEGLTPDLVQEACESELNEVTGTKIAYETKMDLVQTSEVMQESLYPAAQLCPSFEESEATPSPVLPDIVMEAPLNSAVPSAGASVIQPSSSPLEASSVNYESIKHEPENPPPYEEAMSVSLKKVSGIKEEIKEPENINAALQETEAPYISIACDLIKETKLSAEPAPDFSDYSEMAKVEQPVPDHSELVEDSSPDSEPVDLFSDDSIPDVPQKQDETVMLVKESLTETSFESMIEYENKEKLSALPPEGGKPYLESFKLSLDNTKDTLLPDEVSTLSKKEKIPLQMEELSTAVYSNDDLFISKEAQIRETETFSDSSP
Description: AP fusion on COS-7 cells expressing mouse NgR3. Here is the method:
(§1) FIG. 3B. […] Conditioned media from transfected HEK293T cells containing 20 nM of indicated AP fusion protein were applied to COS-7 cells expressing mouse NgR1, human NgR2 or mouse NgR3 and bound AP was stained. Surface expression of NgR5 was detected using anti-Myc or anti-His antibodies. AP-AmNgA: AP fusion protein of Amino-Nogo fragment A. AP-AmNgB: AP fusion protein of Amino-Nogo fragment B.

Assay [2] addresses B1. Put plainly: AP fusion on COS-7 cells expressing mouse NgR3. The protocol:
as §1

The target in the next assay is T2, mouse NgR3 (Mus musculus, UniProt Q8K0S5).
T2 construct: expressed in transfected cells; host or cells: COS-7
T2 sequence (Q8K0S5 25-424): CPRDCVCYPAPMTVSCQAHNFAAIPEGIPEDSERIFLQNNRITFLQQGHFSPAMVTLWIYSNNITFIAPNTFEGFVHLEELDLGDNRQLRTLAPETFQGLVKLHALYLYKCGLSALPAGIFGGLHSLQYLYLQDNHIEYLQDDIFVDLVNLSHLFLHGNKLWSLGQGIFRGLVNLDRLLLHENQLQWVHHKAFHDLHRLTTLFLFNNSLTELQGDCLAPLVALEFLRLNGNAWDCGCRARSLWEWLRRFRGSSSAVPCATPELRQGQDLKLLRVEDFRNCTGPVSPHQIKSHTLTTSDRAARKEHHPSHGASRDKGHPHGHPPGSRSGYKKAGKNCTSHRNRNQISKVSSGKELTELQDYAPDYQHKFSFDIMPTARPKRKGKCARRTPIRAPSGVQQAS
Particulars: expressed on the surface of COS-7 cells; Barton et al. 2003; cited from earlier work.

Another assay concerns the target T3, human NgR2 (Homo sapiens, UniProt Q86UN3).
T3 construct: expressed in transfected cells; host or cells: COS-7
T3 sequence (Q86UN3 47-390): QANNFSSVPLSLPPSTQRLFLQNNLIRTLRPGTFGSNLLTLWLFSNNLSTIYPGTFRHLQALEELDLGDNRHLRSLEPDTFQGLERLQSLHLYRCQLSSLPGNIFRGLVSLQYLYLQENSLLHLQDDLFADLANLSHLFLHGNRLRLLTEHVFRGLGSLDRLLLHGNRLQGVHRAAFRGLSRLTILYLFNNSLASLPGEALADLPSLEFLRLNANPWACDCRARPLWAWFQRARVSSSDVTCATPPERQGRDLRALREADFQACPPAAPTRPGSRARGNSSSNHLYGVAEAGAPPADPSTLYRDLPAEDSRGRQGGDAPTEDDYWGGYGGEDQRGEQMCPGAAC
Particulars: expressed on the surface of COS-7 cells; Barton et al. 2003; cited from earlier work.

For B1, the binding result in assay [1] is recorded as “no binding (tested: 20 nM)”.

B2: AP-fused Amino-Nogo fragment B (a.a. 622-1018) (ligand)
chain: SAVPSAGASVIQPSSSPLEASSVNYESIKHEPENPPPYEEAMSVSLKKVSGIKEEIKEPENINAALQETEAPYISIACDLIKETKLSAEPAPDFSDYSEMAKVEQPVPDHSELVEDSSPDSEPVDLFSDDSIPDVPQKQDETVMLVKESLTETSFESMIEYENKEKLSALPPEGGKPYLESFKLSLDNTKDTLLPDEVSTLSKKEKIPLQMEELSTAVYSNDDLFISKEAQIRETETFSDSSPIEIIDEFPTLISSKTDSFSKLAREYTDLEVSHKSEIANAPDGAGSLPCTELPHDLSLKNIQPKVEEKISFSDDFSKNGSATSKVLLLPPDVSALATQAEIESIVKPKVLVKEAEKKLPSDTEKEDRSPSAIFSAELSKTSVVDLLYWRDIKKTG
notes: also called AmNg B; AP-AmNgB; not shown: alkaline phosphatase (AP), vector pcAP6
Turning to B2, in assay [2], the binding result is “no binding (tested: 20 nM)”.

B3: AP-Nogo-66: AP fusion protein of the Nogo-66 domain (protein)
chain: RIYKGVIQAIQKSDEGHPFRAYLESEVAISEELVQKYSNSALGHVNCTIKELRRLFLVDDLVDSLK
modifications: left off: large carriers
notes: AP fusion protein of the Nogo-66 domain
For the molecule B3, the “binding to NgR3” value in the assay with mouse NgR3 is listed as “do not bind”. Moreover, the “binding to NgR2” value in the assay with human NgR2 is given as “do not bind”.
